From IntAct's records for PubMed 17392269

B1: Protein Pixie (Drosophila melanogaster (Fruit fly)), Q9VSS1 (parent)
chain: MSRRKENEEVDKQTRIAIVSDDKCKPKRCRQECKKTCPVVRMGKLCIEVTPTSKIASLSEELCIGCGICVKKCPFEAITIINLPSNLEKHTTHRYSKNSFKLHRLPIPRPGEVLGLVGQNGIGKSTALKILAGKQKPNLGKYANPPDWTEILSYFRGSELQNYFTKILEDNLKALVKPQYVDQIPKAVRGAVGDLLDKKDERELQTKICEMLDLSHIRDREIAQLSGGELQRFAIAMVCIQNADIFMFDEPSSYLDVKQRLNAALTIRSLLHPTKFIIVVEHDLSVLDYLSDFICCLYGVPGCYGVVTMPFSVREGINIFLDGFVPTENMRFRTESLTFKVSESATEEEIKRMNHYVYPAMVKTLGKFELTVEKGHFSDSEILVLLGENGTGKTTFIRMLAGNLQPDGEVELPMLNISYKPQKISPKFQNHVRHLLHDKIRDAYVHPQFIADVMKPMKIEEIMDQEVQNLSGGELQRVALVLCLGKPADVYLIDEPSAYLDSEQRLVAAKVIKRYILHAKKTGFVVEHDFIMATYLADRVIVIEGQPSVKTTAFSPQSLLNGMNRFLELLGITFRRDPNNFRPRINKNNSVKDTEQKRSGQFFFLEDEACN
partner: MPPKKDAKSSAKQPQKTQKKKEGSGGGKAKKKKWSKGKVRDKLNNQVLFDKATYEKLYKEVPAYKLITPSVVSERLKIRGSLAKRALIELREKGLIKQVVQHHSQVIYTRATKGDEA

Variants of: B1
Details: with rs25_drome RpS25, P48588
For E503Q, the “effect of a mutation on the interaction” value was “increasing interaction”.
